Results on 17 molecules are retold here after patent US20130261013A1.

To fix the notation:
T1: vitamin D binding protein
T1 sequence (P02774 17-474, species assumed, looked up): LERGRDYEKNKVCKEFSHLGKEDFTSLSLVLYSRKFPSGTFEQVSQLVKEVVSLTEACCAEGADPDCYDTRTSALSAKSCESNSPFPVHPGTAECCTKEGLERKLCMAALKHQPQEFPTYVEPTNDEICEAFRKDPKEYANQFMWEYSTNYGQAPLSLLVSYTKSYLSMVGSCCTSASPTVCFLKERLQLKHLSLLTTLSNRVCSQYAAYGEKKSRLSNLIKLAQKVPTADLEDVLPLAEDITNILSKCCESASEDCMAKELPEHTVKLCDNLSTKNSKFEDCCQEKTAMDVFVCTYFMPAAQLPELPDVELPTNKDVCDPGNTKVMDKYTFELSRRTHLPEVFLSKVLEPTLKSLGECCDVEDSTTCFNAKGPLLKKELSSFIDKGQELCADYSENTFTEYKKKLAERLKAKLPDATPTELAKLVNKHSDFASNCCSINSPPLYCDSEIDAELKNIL

B1: 4-C37L34-6C-VD3 (dansyl) (designed binder)
chain: NAADLEARIRHLRERLAARGPRDAAQLAEQLARK([Ahx-VD3])FEK(Dansyl)FARAG
modifications: not fully specified (N-terminus, C-terminus)
B2: 4-C37L34-6C-25OHVD3 (dansyl) (designed binder)
chain: NAADLEARIRHLRERLAARGPRDAAQLAEQLARK([Ahx-25OHVD3])FEK(Dansyl)FARAG
modifications: not fully specified (N-terminus, C-terminus)
B3: 3-C15L8-8C-25OHVD3 (dansyl) (designed binder)
chain: Ac-NAADLEAK([8C-25OHVD3])IRHLAEK(Dansyl)LAARGPVDAAQLAEQLARRFEAFARAG
B4: 4-C15L8-6C-VD3 (dansyl) (designed binder)
chain: Ac-NAADLEAKIRHLREK(Dansyl)LAARGPRDAAQLAEQLARRFERFARAG
modifications: not fully specified (residue 8)
B5: 4-C10L17-6C-VD3 (dansyl) (designed binder)
chain: Ac-NAADLEARIK(Dansyl)HLRERLKARGPRDAAQLAEQLARAFERFARAG
modifications: not fully specified (residue 17)
B6: 3-C10L17-8C-25OHVD3 (dansyl) (designed binder)
chain: Ac-NAADLEARIK(Dansyl)HLAERLK([8C-25OHVD3])ARGPVDAAQLAEQLARAFEAFARAG
B7: 4-C25L22-6C-25OHVD3 (dansyl) (designed binder)
chain: NAADLEARIRHLRERLAARGPK([Ahx-25OHVD3])DAK(Dansyl)QLAEQLARAFERFARAG
modifications: not fully specified (N-terminus, C-terminus)
B8: 4-C25L22-6C-VD3 (dansyl) (designed binder)
chain: NAADLEARIRHLRERLAARGPK([Ahx-VD3])DAK(Dansyl)QLAEQLARAFERFARAG
modifications: not fully specified (N-terminus, C-terminus)
B9: 4-C15L8-6C-25OHVD3 (coumarin) (designed binder)
chain: Ac-NAADLEAK([Ahx-25OHVD3])IRHLREK(coumarin)LAARGPRDAAQLAEQLARRFERFARAG
B10: 2-C15L8-8C-25OHVD3 (dansyl) (designed binder)
chain: Ac-NEADLEAK([8C-25OHVD3])IRHLAEK(Dansyl)LAARGPVDAAQLAEQLARAFEAFARAG
B11: 3-C15L8-6C-25OHVD3 (dansyl) (designed binder)
chain: Ac-NAADLEAK([Ahx-25OHVD3])IRHLAEK(Dansyl)LAARGPVDAAQLAEQLARRFEAFARAG
B12: 4-C15L8-8C-25OHVD3 (dansyl) (designed binder)
chain: Ac-NAADLEAK([8C-25OHVD3])IRHLREK(Dansyl)LAARGPRDAAQLAEQLARRFERFARAG
modifications: not fully specified (C-terminus)
B13: 1-C15L8-8C-25OHVD3 (dansyl) (designed binder)
chain: Ac-NEADLEAK([8C-25OHVD3])IRHLAEK(Dansyl)LEARGPEDAEQLAEQLARAFEAFARAG
B14: 3-C15L8-dT (designed binder)
chain: Ac-NAADLEAK(dT′)IRHLAEK(Dansyl)LAARGPVDAAQLAEQLARRFEAFARAG
B15: 3-C25L22-dT (designed binder)
chain: Ac-NAADLEAAIRHLAERLAARGPK(dT′)DAK(Dansyl)QLAEQLARAFEAFARAG
B16: 2-C10L17-dT (designed binder)
chain: Ac-NAADLEAAIK(Dansyl)HLAEALK(dT′)ARGPVDAAQLAEQLARAFEAFARAG
B17: 4-C10L17-dT (designed binder)
chain: Ac-NAADLEARIK(Dansyl)HLRERLK(dT′)ARGPRDAAQLAEQLARAFERFARAG

Primed or numbered codes have the meaning given here. Side chains are listed from the residue outwards. Ends that are not written are not given here. * marks the point of attachment. dT′ = N3-(decanoic acid)-2'-deoxythymidine (dT probe 19), Cc1cn([C@H]2C[C@H](O)[C@@H](CO)O2)c(=O)n(CCCCCCCCCC(=O)*)c1=O; coumarin = 7-methoxycoumarin-3-carboxylic acid, COc1ccc2cc(C(=O)*)c(=O)oc2c1; 25OHVD3 = 25-hydroxyvitamin D3, linked at its carbon 11; Dansyl = CN(C)c1cccc2c(S(=O)(=O)*)cccc12; 8C = 8-carbon spacer; Ahx = NCCCCCC(=O)O; VD3 = vitamin D3 Where only a bound is given, the exact number is not on record here.

The first experiment deals with T1, vitamin D binding protein. Kind of experiment: SPR (Biacore 2000), DBP immobilized on CM5, 1:1 model. (In general: SPR reads the build-up and loss of mass on a sensor chip optically.)
A word on the Kd: it is the equilibrium constant for the complex coming apart. For B1, the Kd worked out at 900 nM.

The molecule B2 came in with a Kd of 190 nM. On the same count and under the same terms, with B3 the figure was 1100 nM; with B4, 1800 nM; with B5, 890 nM. The same measure, in the same setting: with B6 the figure was 1200 nM. B7 showed a Kd of 750 nM.

In turn, B8 came in with a Kd of 1300 nM. The same measure, in the same setting: with B9 the figure was 50 nM; with B10, 480 nM. Molecule B11 registered a Kd of 1300 nM. On to B12, for which the Kd amounted to 110 nM. Same read-out and setting: with B13 the figure was 290 nM.

Another experiment concerns the target thymidine kinase. Kind of experiment: fluorescence screen, 2 µM binder, 2 and 4 µM TK; estimate for 'hits'.
B14: the Kd was below 20 nM. The same measure, in the same setting: to B15 belongs below 20 nM; to B16, below 20 nM. On the same count and under the same terms, with B17 the figure was below 20 nM.
